Experimental data taken from article PMC7556403.

Assays:
[1] = target: MBP-APO1 mXT (aggregated form) M46A;R48S;I80T;W121A;L173A;W199A;F205A;del1-14 (human) (UniProt P41238); test: EMSA; settings: no A1CF; aggregated form; weaker than WT; 50 nM nucleic acid, 20 mM HEPES, 50 mM NaCl, 5 mM DTT, 10% glycerol (0.4 U RNase inhibitor for RNA), pH not stated for EMSA (HEPES pH 7.5 in protein buffers) …
[2] = target: MBP-APO1 mXT (dimeric form) M46A;R48S;I80T;W121A;L173A;W199A;F205A;del1-14 (human) (UniProt P41238); test: EMSA; settings: no A1CF; dimeric form; 50 nM nucleic acid, 20 mM HEPES, 50 mM NaCl, 5 mM DTT, 10% glycerol (0.4 U RNase inhibitor for RNA), pH not stated for EMSA (HEPES pH 7.5 in protein buffers) …

Sequence: GGAUAUAUGAUACAAUUUGAUCAGUAUAUUAAAGAUAGUUAUGAUUUACAUGAUU [APOB RNA 55 nt]
- Kd [1]: 460 nM
- Kd [2]: 140 nM
